Measured values from the NTF2 design screens of Basanta et al. (2020).

assay: protease stability score; higher = more stable; yeast display proteolysis, trypsin and chymotrypsin;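 also: log10 excess protease needed over predicted unfolded state with 0 meaning unfolded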

Sequence	protease stability score
DEEELMNRFWETMERIMEKGDEDTMRKQVDPNAKAEYGDKTVHGRHQFAKFWIEQARRADHIKFDIKSIDVKPPTIVVRLTVKFNVNGTNHKRDISIVFKVHNGRIVLHNAHEN	1.02
DEEELQEMIHEFVKALETGNPDDIDKNADEDAKAVYGDKEVEGREQIKHQIKQLHDAIDHLEVKRVSFDNGRAHIHVEMTVNGERFTAKITVEAHNGKIKDVQFDPRLRNAYES	0.81
DEEELQRWAERIVEAFTHGDPQRLSKNVDKNVKVTVGEHEYHGKEELNKILEEIRRQADRIHYKSVDVQGDRANFDMVMNVNGKNVKFTLIVRFENGHAKHLEFDPRMWRVVQR	1.53
DEEELQSVKEYIENLQTNNESRLRKYADPNAQITVGDKVIHGMEDFQRQMEEDRRHSRISFKSVEFRYHDGKAVVHAEFTHVDNGQPDEVRVDYRFKLHNGRIKSQNVREVK	-0.331
DEEELRELVRNIIEQLQQNNEEELKKQMDKDARMQYGDKEWHGREDIVRHLASVAHQVDHLELESVSVDGNKAHFTFRRQVNGHDETLRAELVVRNGRVVSIKYRHN	-0.021
DEEELREMVKKWLEVVQKGDQKKAVEMYKPNGEWRMIDEEKQGQEDVEKMLRKAQEDGVEFQTRKAKVEGNKAEMHYDMKLGDETVTFTVQLVAHGGRIDRVKVKVTEEAKKLLTKG	0.221
DEEELRQAMKVVKTNDPDNLRKLMDENVRVQVGNKVYHGREEAEKWLERMRKQIDHVNVRRVQIQGDRIVVEMEVTVNGKTIEATLHAKLHNGSLKSLRVEATSEKEKEKIEEANK	0.93
DEEELSEVANNMERILREGDPDKARSLADENAKAHIGDKKYHGREQIREMIHRMRTRADKVTVNELRITNGVIKIVAEFNVNGRNIEIVVHIRVNNGKISEVNFEVRDPDQYKEIYS	0.386
DEEELSHFLDVVRTGDFHEMAKMVDPNARINVGDKRVHGREDAETLIKEIQKRADHVEVDSYSIEGDKVRVLMRVNVNGVEVVFILVVQLNNGRIVHRQVDVTNEELEKQVRHANS	0.659
DEEELSQVVRKVIEALRTGDPDLFQKLADPNAKASVGDKSVHGKEEISSLQKEFSDRVDEIKFTHVSFENGHATIHMELNHNGRHDKVVVKIDVENGKIKHVQIEKS	0.741
DEEELTKTLHEIIKDFVHGDSNQLRENADPNVKLKVGDKEIRGHHEVHKWAKKLRERVDSIKVKDYSATGEKAVAHVIADINGENVEITIVIQAHNGRIKLITVDPEDDKKMKQ	0.279
DEEELTTLAEQLMDIIEQGDKKRFHQLADPNARMDVGDKRYHGREEMAKNLYDLVERVDTISVDSLSARNGRIKIDMRFKVNGQDVKQILVVRADNGTITRVSIETS	0.849
DEEEMDRFIKHLERNDEDRWVQMADPNVKVRIGDNTLRGREQLKKWFHRFRKRVDTYSIDSYTVHGEKIKVRAKFQVDGRNVQFSFVVVIKNGRIKSATYEARNEEDQEQDKRDLE	1.5
DEEEMEKVLQVQSTGNPDRYRKLADKDVRLVVGDTEVQGKEKVVKKVHDFHKQIDHQDYESMSAEGNRIDVLLRNVVNGQELVLRVVVRVHNGRIKEVELRARSEEEQSRFDHAWK	0.093
DEEEMKEMLEKWHEAVQKGDSDKVKKLYKPNVEWEDSDTQKQGVEVVIKMLQEVQKKGLEFQVRKAKVEGDTAQAVYDLRFGDKTVTFTVELQAQGGRVDKVRVELNEEAKKVLTKG	1.19
DEEENKDVATTFVKAVEQGDPDKISHLFDENARAQIGDKEYHGREDLMRMAQEWRDRYDHIEIQDYKVHGNKVTAHFVMQHNGKRERRVMTAEWRNGQIHSMQVHSS	1.37
DEEENKHLISLFERNNWRDMAEMADKDVKAQYGDSTIHGREQVHEVLTQLQKRADHLEIKDYNVDGNKVVVDQVINVNGVTIRAKVLMEVHNGRIKQMHVQATDNEEKKKLDKVLS	-0.466
DEEENNKIARRAAKAFSTGDPDEFHKLVDPNARVRIGEKEVHGREDVHRMVQELRERADHIQVTSFTFQGNKITLDLSLDVNGHTVKLNVEITIHNGHVVDINIDPEQVKSLHG	0.647
DEEENQELAEKFVRAIQEGDPDQITDLLDENAKATVGDRTYHGRSQIADYIHEMLKKADHFEVQSVDVQGNHIVIHVQMDINGKQVHMIIKMELSNGKVKHLEIEHK	1.75
DEEENTKVMERFLDAVKRGNEDDLHELADKDVRLTVGDKEYHGREEIMEYLHEWRKKVDHIDFDSYTVRGNTVEVHFQVHDNGQNEDVVVQVEVHNGRVKTVRYRHK	1.72
DEEEQDKVRKNIHHNNFDHLVQMADPNAHVKIGDKRIHGREELRKYQEKLKKQADHFSIDDMKVEGNKFKVKNNFKVNGQSFEHDYEATVQNGRLKSATVDARDEEDKKKLNEQMS	0.451
DEEEQEKQAHDFARVFNTGDEEKFKRLMPPDARFRYGDKEYHGMDDLLRMLLEMHKRADHLTLVDVDAHGNHLTIRIKVTVNGSDVTVDITITVDNGRLKSVVVDPRQWQKLRN	0.066
DEEEQERAMEKLDHAIEKGDPDDAVELLDENADAVIGDKRYHGREAATTFMHELRKQIDHIHIRDMQIDNGRAHIEVDARHNGQERKINVVFVFHNGRATSMENRSE	1.02
DEEEQHKRAREYMQMFEDNDEKNLMHMADENARLVVGDKTYRGKEELSKQVREQKKRVDHNQVHSVRLHNGRVVIDVTLHHNGHREKRIIRVQLRNGRIKSIVYESG	0.037
DEEEQHKTATKILSDFHTGNPDDMRENADEDVTAQVGDKTYTGREEFHKAVKTIVDRVDHLEIKSFDFHNGQLEANFVININGKNEKKKLVMRVENGRVKHMKIDDG	-0.221
DEEEQHKVAKKLNEAFQQGDPDRLKQLVDKDARAEVGDTTYHGSQDIREAMQHIKDRVDKIEVKSFSVRNGKVTLSINMEVNGRKVILTVEARVDNGHVEYMRIKYTNEEDREVMDQ	0.95

Sequence	protease stability score
DEEEQKKRAKKQADAMRQGDTDELVKMLRDDVRVKVGDKEVHGREDLKKWAREIKKEVDHIQIRQVQVHNGRIDFHIVVNHNGKNKEVVLVVRVRNGQATDFKLTRK	0.051
DEEEQKNRAKNAADAFQTGDPDQMVEMVDKDVRVQVGDKRYHGREVARTVLDEMQQHIDHIHVKNYNVSGNTVEIRIKANINGRDVEINIHIEMHNGRVKEVKFNPKVADAAKR	0.25
DEEEQKVFEKVQDAIRDGDEDTVKKLMDENAKVTIGDKDLHGSDNIARHVHKLHKDMRISIDIKHIDVTGDKIRVHARVEVDKNGKPKHYDVDFTARAKNGKVKTLNYREDS	0.694
DEEEQMHQANQNLRDAFRTNDPDTWRTLVDENARVRIGDKHVSGREEVKELMEDIAREADHLELRVQSMTVRNGELHVHFTLRADVNGQKREIQVVVVLVVRNGRARISRVEQT	1.15
DEEEQNKIAETAAKAVASGDEKRLVDLADKHVKVHYGDKDLRGKEAADTLAHDLKRQVDNIKVDTVHAHNGRANADVEVRVNGKKVRYQVQVVVTNGTIDRVQLDPDMVRDHES	0.101
DEEEQQDHAHTLKDALTYGNEQEFRHMADENARINYGEFDYHGREQFQDVIRRIMEQADHVRVDHVQVHGEHVDIRLKVKFNGQTQRWVIIVRFHNGRIKHLSADTQ	0.499
DEEEQQKNAETADRNVKTGNWEEIKKMVDKDARVKIGDTTLHGREDVSREFKRWREDADHVEMKRVSASNGRAVVEVEYTVNGRKKKFTMIMEMHNGRIKHFRNERS	0.251
DEEEQQKVADKIVEVLKSGNPDEMMKLADENVRAQVGDKTYHGREELKKWMKEVRDRVDRIRVETWEVHNGTVNIIVRMDVDGQTLTLTITANIHNGRIKQIVIEYRDDDELRKAQK	0.729
DEEEQRKAAHQYRKGDPDEAHHMFDENATVEIGNFHVQGREQVREAFEHMKRRADHREVDDMKIQGDKVQVDFQIVVNGQRVKATLDAKVKNGRAQSVRVEFRDEEDRTRAERWFK	0.042
DEEEQRKTAEDIAQVLRTNNPDTMNKLADKNAKASVGDKTYHGRKELSKWIEEQRRRVDHVDIKRFSVDGNEIIIIVILNHNGQNTRVVMVARVKNGRIQSLWRKSK	-0.176
DEEERAKNFMKQLIDVAQRGDKENAKRLFDENARVEVGDKTYRGRRRVATFLMELSERADHMEMRIQSFDISGDKFDLVLKVERHHNGRQQSFQLKVVATVRNGNLVIVHVRMG	2.49
DEEERLRTILKLFEEALKHNDEDRLRKLADKDVRMRVGDKEYRGKEKFADFMRKLRTKADKVRIQIKQVNIQGNHNTMDITLVFNVNGNNNRFKVNFVFDIRGDSLKLKSATVK	1.32
DEEERRKAHELVKHNDWDKLMKNAPPDVTARIGDRTVHGMEEQVRIEHNMLRRVDENQLHSVDNSGNQLVVTLHVQINGRRFKFTVKIVIHNGQVTTVKVQARDEKEKRKLTELMG	0.566
DEEERRRLAKRVIDAMNTGDPDQVVEQIDPNARVEIGDKVYHGRDKAKKAAEERKRQADHVKLKSLEVHGNKVHARLIFNRNGENRTVLLRIKVSNGKALEIRFDHQ	0.552
DEEERSKLAERLVKAVQNNDEDSLLDNIDKNARVVVGEKTYHGRENARHAMQQFDEDVDHLQVRTFEVHGEHIRIQFEVNINGHTHTVVLDAEVKNGKLTDVKFDPDDMRKATS	0.14
DEEESDRLKELFRVMRTGDHKRAENMLDPNARFKVGDKKFEGRHEWQKDIKKTKEESHADIKIKDVHFDNGRVDVTLEMVVLHNGRPKKFRVKFVATIQGEKVKEAHITESQ	-0.094
DEEEVEEMVDQALTAIRTGDEDTFAHQFDENARMEVGDTTLHGRDEIRKEMKKFRDRADHIRIQDYKVKGNKIVIVFVARFDGRHAQITIVWVFSNGRVKHASINPNQVQEFRK	0.279
DEEEVERIAKKLWKIMETGDEDEARKMVPPDVQARVGDKHISGREQYAKWVREVVKRVDSFRIKSLDAKGDKVNIVFVVHHNGKVEQHHATLVFHNGKLVYRTVKTG	0.433
DEEEVERVAKTAMEAMKKGNEEELKKLLKEGVEYIMGDNKVHGPEEIQKMVQLVLRVGMRIEFKELRVEGDTATTNVDYQVGDKKVTVQAHAELKGGRIDRVQIDFSDEAKKHVKHG	1.17
DEEEVKDLDRRLQEAMKTNDPDQMQRLVDENVTASYGDKEVTGREEFKKNNRELLKRVDHVNIHDVTVSGEEMVLDASVKHDGREHRIRVRAVVRDGRIKSLKIHDG	0.494
DEEEVKKFKEFLDDEKKGNEERAKKLADPNVNVRVGNRQVDGSDNLQKEIRTQKEQARFDMKVDHVEAHNGRIHLEFKLTVEVDGRPKSDTATADAVVTNGHITSLTVQMSEDQVREMDK	-0.238
DEEEVKKQLEKLVKMLVKGNKDEIKKFLDPDVEYKVVDEDFQGQQVAEHAYKKIKKVGARMEVKEVRVEGDTAKATYEFTAGGTTVRAEIEAEVHGGRVKHWQVDLDDTAKELIKKG	0.266
DEEEVKQAIDRWEQGDPDQLKELVDENAHMVIGDKRLHGRETFEKMIKNLMDQADHITIESVEVQGDKAVMDVVANFNGKTVRYEVEIRIQNGQIKYLQINVTNEHDEHRFDQWLG	1.16
DEEEVKRQLDQVAKALLHGDEKQAKDLADPNVSANYGDKKLHGRENFSKWVKKFRHQIDHLELKDIRVNGDRLVIEVQANVNGQDVDVVFNLKLHNGKVKHMSVEYRDEQAKRELKK	0.49
DEEEVNKALERIRQVLEDGNPDENMKLMDKDVRVEIGDKTWHGRDEAHKAMRELNENVDHFQFDRLHHEGDRAKIDVHLEDNGKKDRVTFEFKIENGRIQHARVQTS	-0.335
